Entries after “also recorded” stand apart in the source; their conditions may differ.
Legend:
[1] = system: TM^wt/wt endothelial cells; experiment: Static adhesion assay: murine PMNs on endothelial cells from TM^wt/wt mice; type: cell-based; conditions: addition of PPACK to exclude thrombin effect
Text: Table 8: Static adhesion assay. […] This is a representative experiment performed 3 times, on 3 different clones each. For each experiment, 5 wells were used for each condition, and adherent leukocytes in 15 microscopic fields were counted.
Since TM expression is not restricted to vascular endothelial cells, but is also synthesized by other cells including neutrophils and monocytes, we considered the possibility that the increase in leukocyte efflux into the lungs might be a result of TM alterations on either the neutrophils and/or the vascular endothelium. fEND.5 cells are an established PymT transformed murine endothelial cell line that expresses full-length, functional TM on the cell surface. […] Adhesion and rolling of neutrophils to transformed endothelial cells derived from the TM^wt/wt and TM^LeD/LeD mice were consequently evaluated. […] This was determined not to be an endothelial cell clone-specific artifact, as 3 different clones of endothelial cells were evaluated with similar results. There was also a significant 3-fold increase in PMN and lymphocyte adhesion to resting TM^LeD/LeD endothelial cells as compared to TM^wt/wt endothelial cells (Table 8). […]
Neutrophils and lymphocytes were isolated from bone marrow according to the method of Lowell and Berton ^35. Each population was assessed to be over 95% pure by microscopic analysis after Wright staining. […]

HUVECs = experiment: Rescue of HUVECs from serum starvation-induced cell death; type: cell-based, human; conditions: 3 days of serum deprivation
Experimental: Because endothelial cell death is a pathway of sustained tissue damage, we evaluated whether TMlec155 was capable of rescuing HUVECs from serum starvation-induced cell death. After 3 days of serum deprivation, over 95% of HUVECs died. Serum starvation with the addition of TMlec155 at concentrations of 1, 10 and 20 μg/ml rescued 2±0.6%, 18±7% and 34±14% of the cells (p=0.69, p<0.05, p<0.05, respectively compared with serum-starved controls), showing that soluble TM rnay also have pro-survival properties.

[2] = system: TM^LeD/LeD endothelial cells; experiment: Static adhesion assay: murine PMNs on endothelial cells from TM^LeD/LeD mice; type: cell-based; conditions: for PMN Adhesion (# per 15 HPFs): PMNs from wild-type mice
Experimental: Constitutive levels of circulating soluble TM, composed of proteolytic components of the extracellular domains, are found in the plasma of normal individuals, while quantitative changes occur in different disease states. Purified recombinant TMlec155 was prepared using the Pichia pastoris expression system, and further purified by a series of chromatographic steps as detailed in the methods. In a static adhesion assay on TM^Led/Led endothelial cells, PMNs were co-incubated with TMlec155 at two concentrations. Adhesion of PMNs to the resting endothelial cells was, as before, increased as compared with adhesion to wild-type endothelial cells (Table 9). […] The degree of suppression of adhesion was almost to the level of adhesion to wild-type endothelial cells. […] The role of recombinant TMlec155 in vivo was tested by injecting wild-type mice with LPS 20 μg/gm i.p., followed 5 minutes later with an intravenous bolus of recombinant TMlec155 or buffer alone. After a further 3 hours, the serum cytokine response was determined.
Endothelial tumors were induced to grow in 7 day old mice following intraperitoneal (i.p.) injection of retrovirus carrying the middle T antigen of murine Polyomavirus (PymT). After 10-14 days, the tumors were excised, and endothelial cells were isolated^32.33. Primary cultures of lymphatic endothelial cells were isolated from intraperitoneal lymphangiomas, growth of which was induced by injection of incomplete Freund's adjuvant exactly as described^34. Cells were cultured on collagen or gelatin coated plates in M199 media supplemented with 20% fetal bovine serum, porcine heparin 0.1 mg/ml, endothelial cell mitogen 5 μg/ml (Biomedical Technologies Inc., Stoughton, Mass.), 100 μg/ml penicillin and streptomycin 100 μg/ml. Cell cultures were incubated at 37° C. in a humidified atmosphere of 5% CO2 and 95% air, and experiments were performed at passage 3-8. Over 95% of the cells immuno-stained positively for TM and vWF, confirming the endothelial origin and purity.
Neutrophils and lymphocytes were isolated from bone marrow according to the method of Lowell and Berton ^35. Each population was assessed to be over 95% pure by microscopic analysis after Wright staining.
Endothelial cells were plated in 24-well dishes and grown to confluence. Following 2 washes of the cell monolayers with HBSS, freshly prepared BCECF-AM-labeled, neutrophils derived from human peripheral blood, or murine bone marrow-derived PMNs or lymphocytes 50,000 per well, were added in a final volume of 1 ml for 30 minutes at room temperature. The media was decanted and the cell monolayers were gently washed three times with HBSS after which the adherent fluorescently labeled leukocytes were counted with an inverted epiflourescence microscope as described above.

IL-1β = experiment: Cytokine response in vivo after LPS i.p. in wild-type mice; conditions: LPS 20 μg/gm i.p.
Experimental: Table 10: Effect of recombinant TMlec155 on cytokine response in vivo. Wild-type mice were treated with LPS 20 μg/gm i.p., following 5 min later with the noted treatment. Plasma levels of IL-1b were measured 3 hours later
Constitutive levels of circulating soluble TM, composed of proteolytic components of the extracellular domains, are found in the plasma of normal individuals, while quantitative changes occur in different disease states. Purified recombinant TMlec155 was prepared using the Pichia pastoris expression system, and further purified by a series of chromatographic steps as detailed in the methods. In a static adhesion assay on TM^Led/Led endothelial cells, PMNs were co-incubated with TMlec155 at two concentrations. […] After a further 3 hours, the serum cytokine response was determined.
Double antibody sandwich ELISA kits, purchased from R & D Systems Europe (Abingdon, UK), were used to quantitate murine plasma levels of TNFα, IL-1β, IL-6 and IL-10. […] A sensitive and specific radioimmunoassay to quantitate plasma levels of murine FPA was performed as previously reported^24.
Lipopolysaccharide (LPS) from Escherichia coli serotype 0111:B4 (Sigma) was injected intraperitoneally into 10-12 week old mice. For lethality studies, animals were closely monitored each day until either recovery or cessation of breathing. […]

pERK1/2 and NFκB = experiment: TNFα-induced pERK1/2 and NFκB in HUVECs; type: cell-based, human; conditions: TNFα 200 U/ml for 20 minutes
Experimental: We predicted that soluble lectin-like domain of TM would suppress PMN adhesion by altering regulation of MAP kinase pathways in ECs. Therefore, HUVECs were exposed to TNFα (200 U/ml) for 20 minutes. […] Total ERK1/2 levels remained unchanged.

For `NC(N)=NCCC[C@H](NC(=O)[C@@H]1CCCN1C(=O)[C@H](N)Cc1ccccc1)C(=O)CCl` [PPACK], the “effect on the results of the adhesion assays” value [1] was “no effect”.

B1: TMlec155: Recombinant first 155 amino acids of murine TM, restricted to the lectin-like region, polyhistidine-tagged, expressed in Pichia pastoris (protein)
chain: LSALAKLQPTGSQCVEHECFALFQGPATFLDASQACQRLQGHLMTVRSSVAADVISLLLSQSSMDLGPWIGLQLPQGCDDPVHLGPLRGFQWVTGDNHTSYSRWARPNDQTAPLCGPLCVTVSTATEAAPGEPAWEEKPCETETQGFLCEFYFTA
modifications: left off: small tags and cut ends
notes: Recombinant first 155 amino acids of murine TM, restricted to the lectin-like region, polyhistidine-tagged, expressed in Pichia pastoris
With B1 the “cells rescued from serum starvation-induced cell death” value (“cells rescued” below) (HUVECs; 1 μg/ml) was 2±0.6%, the “cells rescued” value (HUVECs; 10 μg/ml) was 18±7% and the “cells rescued” value (HUVECs; 20 μg/ml) was 34±14%. For the same molecule, the “PMN Adhesion (# per 15 HPFs)” value ([2]; TM^LeD/LeD + TNF endothelial cells, recombinant TMlec155 3.6 mg) was 132 ± 90 # per 15 HPFs, the “PMN Adhesion (# per 15 HPFs)” value ([2]; TM^LeD/LeD + TNF endothelial cells, recombinant TMlec155 7.2 mg) was 153 ± 106 # per 15 HPFs and the “PMN Adhesion (# per 15 HPFs)” value ([2]; resting TM^LeD/LeD endothelial cells, recombinant TMlec155 3.6 mg) was 15 ± 6 # per 15 HPFs. The “PMN Adhesion (# per 15 HPFs)” value ([2]; resting TM^LeD/LeD endothelial cells, recombinant TMlec155 7.2 mg) was 12 ± 7 # per 15 HPFs, the “Adhesion of PMNs to TNFα-activated TM^Led/Led endothelial cells (effect in words)” value ([2]; static adhesion assay, PMNs co-incubated with TMlec155) was “significantly reduced” and the “Adhesion of PMNs to resting TM^Led/Led endothelial cells (effect in words)” value ([2]; static adhesion assay, PMNs co-incubated with TMlec155 at two concentrations) was “significantly decreased; also recorded: abrogated; also recorded: significant decrease in adhesion”. For the same molecule, the “IL-1β levels (effect in words)” value (IL-1β; i.v. bolus 5 minutes later, 3 hours, compared with control) was “significantly suppressed”, the IL-1β (IL-1β; treatment i.v. bolus 5 min later, plasma 3 hours later) was 286 ± 75 ng/mL and the “Accumulation of NFκB” value (pERK1/2 and NFκB) was “similarly interfered”. The “Accumulation of pERK1/2” value (pERK1/2 and NFκB) was “similarly interfered”.

— patent publication US7341992B2, “Lectin-like domain of thrombomodulin and its therapeutic use” (Vlaams Interuniversitair Instituut Voor Biotechnologie VZW, priority 2001, dated 2008)
